Article PMC4529233, “In Silico Generation of Peptides by Replica Exchange Monte Carlo: Docking-Based Optimization of Maltose-Binding-Protein Ligands” (PLoS ONE, 2015)
Read-outs that look alike come from different tables or passages of the source. No end group written: not given here.

Key:
MBP [1] = target: T1, MBP (Escherichia coli, UniProt P0AEX9); assay: Surface Plasmon Resonance, immobilized MBP, peptides as analytes; assay type: binding; details: for SPR signal variations in the explored concentration range: dose response assay
T1 construct: made in house; host or cells: E. coli BL21(DE3)
Experimental: The interactions between the protein and computationally optimized peptides were measured using the BIAcore 3000 (GE Healthcare Milano, Italy). […] Residual reactive groups were deactivated by treatment with 1 M ethanolamine hydrochloride, pH 8.5. The reference channel was activated with EDC/NHS and deactivated with ethanolamine. The binding assays were carried out at 20 μL /min at 25°C, with 4.5 min contact-time. Peptides were diluted in the HBS running buffer (10 mM Hepes, 150 mM NaCl, 3 mM EDTA, pH 7.4). Analyte injections were performed at the indicated concentrations. The sensor surface was regenerated by using 1–3 washes of 10mM NaOH for 1 minute. The association phase (kon) was followed for 250s, whereas the dissociation phase (koff) was followed for 300 s. The instrument BIAevaluation analysis package (version 4.1, GE Healthcare, Milano, Italy) was used to subtract the signal of the reference channel. Conversely, an affinity steady state model was applied to fit the RUmax data versus peptides concentrations and fitting was performed with GraphPad Prism v4.00 using the one-site binding equation [53, 54].

OPPA = details: KAK+OPPA; cited from earlier work
MBP [2] = target: T1, MBP; details: cited from earlier work
[3] = immobilized MBP on CM5 chip, 25°C, HBS pH 7.4

Row | Substance | KD (SPR determined) (MBP [1]; [3]) | also measured
1 | GLPKPGGN [MBP-5, computationally designed octapeptide] | CBE | –
2 | KAK | – | experimentally determined binding energy (OPPA): -9.8 kcal/mol
3 | PQYPPHDN [MBP-4, computationally designed octapeptide] | CBE | –
4 | WGTNGGTR [MBP-2, computationally designed octapeptide] | CBE | –
5 | WHPRPVWE-NH2 [MBP-8] | – | Kd (MBP [1]; immobilized MBP on CM5 chip, 25°C, HBS pH 7.4, read-out: KD (SPR determined)): 200 ± 5 µM
6 | WSPNFWWR [MBP-7, computationally designed octapeptide] | CBE | –
7 | YGDGYFRF [MBP-10, peptide along the minimization path of MBP-9] | No binding | SPR signal variations in the explored concentration range (MBP [1]): did not give valuable signal variations
8 | YHDGYFRF [MBP-11, peptide along the minimization path of MBP-9] | No binding | SPR signal variations in the explored concentration range (MBP [1]): did not give valuable signal variations
9 | maltotriose | – | experimental binding energy (MBP [2]; compared with the closed configuration score): -9.3 kcal/mol; experimental binding energy (MBP [2]; compared with the open configuration score): -8.4 kcal/mol
